Molecular target: H3K23ub mononucleosomes (H3 'K23ub' thioether mimic), P68431;P0CG48;P04908;O60814;P62805
Experiment: Alpha-screen proximity assay

Kd: 140 nM
Substance: recombinant DNMT1 RFTS domain WT (His-MBP-RFTS) (from UniProt P26358) P378A; L381A

— PMC11662662
